Data from US20140017221.

What was measured:
[1] = test system: Flag-tagged SOD2 K53/89R
[2] = test system: Flag-tagged SOD2 K53R
[3] = test system: Flag-tagged SOD2 K89R
[4] = test system: Flag-tagged SOD2 mutant of K122
[5] = test system: Flag-tagged SOD2 mutant of K130
[6] = test system: Flag-tagged SOD2 mutant of K68
[7] = test system: T1, Flag-tagged SOD2
T1 sequence: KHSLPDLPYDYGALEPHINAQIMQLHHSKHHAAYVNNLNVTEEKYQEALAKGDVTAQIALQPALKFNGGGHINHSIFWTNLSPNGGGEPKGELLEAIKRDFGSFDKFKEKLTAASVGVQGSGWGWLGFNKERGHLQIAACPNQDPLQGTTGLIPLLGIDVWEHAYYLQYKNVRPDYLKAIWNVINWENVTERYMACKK

[8] = target: T2, Long-chain acyl CoA dehydrogenase (endogenous, mouse liver), P51174
T2 chain: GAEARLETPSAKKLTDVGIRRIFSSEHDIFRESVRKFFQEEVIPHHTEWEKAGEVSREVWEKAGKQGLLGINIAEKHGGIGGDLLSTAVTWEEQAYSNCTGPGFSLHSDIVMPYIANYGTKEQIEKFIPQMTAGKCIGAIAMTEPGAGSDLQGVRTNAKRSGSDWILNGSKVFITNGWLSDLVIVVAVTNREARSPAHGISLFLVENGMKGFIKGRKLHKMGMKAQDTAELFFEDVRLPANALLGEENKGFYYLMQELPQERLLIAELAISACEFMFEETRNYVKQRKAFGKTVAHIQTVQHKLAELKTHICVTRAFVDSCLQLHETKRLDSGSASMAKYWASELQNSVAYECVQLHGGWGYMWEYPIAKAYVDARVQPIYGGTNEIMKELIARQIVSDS

Row | Molecule | acetylation levels of immunopurified SOD2 mutant [1] | enzymatic activity of immunopurified SOD2 K53/89R (superoxide conversion, colorimetric) [1] | acetylation levels of immunopurified SOD2 mutant [2] | acetylation levels of immunopurified SOD2 mutant [3] | acetylation status of immunopurified SOD2 mutant [4] | acetylation status of immunopurified SOD2 mutant [5] | acetylation status of immunopurified SOD2 mutant [6] | acetylation levels for SOD2 after immunoprecipitation, western blotting with anti-acetyllysine antibody [7] | enzymatic activity of immunopurified SOD2 (superoxide conversion, colorimetric) [7] | enzymatic activity of LCAD in liver lysates (oxidation of palmitoyl-CoA) [8]
1 | SIRT3 (co-transfected expression construct) | SIRT3 co-expression further decreased acetylation levels of K53R and K89R, but not K53/89R | SIRT3 did not further increase its enzymatic activity | SIRT3 co-expression further decreased acetylation levels of K53R and K89R, but not K53/89R | SIRT3 co-expression further decreased acetylation levels of K53R and K89R, but not K53/89R | SIRT3 co-expression reduced acetylation levels of these three SOD2 mutants | SIRT3 co-expression reduced acetylation levels of these three SOD2 mutants | SIRT3 co-expression reduced acetylation levels of these three SOD2 mutants | SIRT3, but not SIRT3-H248Y, deacetylated SOD2 | Overexpression of WT SIRT3 decreased the acetylation of SOD2 (FIG. 3D, E, G) and significantly increased its enzymatic activity | –
2 | SIRT3-H248Y | – | – | – | – | – | – | – | SIRT3, but not SIRT3-H248Y, deacetylated SOD2 | overexpression of SIRT3-H248Y had the opposite effect | –
3 | SIRT3 (endogenous, mouse tissue) (protein) PISLCVGASGGFGGGGSSEKKFSLQDVAELLRTRACSRVVVMVGAGISTPSGIPDFRSPGSGLYSNLQQYDIPYPEAIFELGFFFHNPKPFFMLAKELYPGHYRPNVTHYFLRLLHDKELLLRLYTQNIDGLERASGIPASKLVEAHGTFVTATCTVCRRSFPGEDIWADVMADRVPRCPVCTGVVKPDIVFFGEQLPARFLLHMADFALADLLLILGTSLEVEPFASLSEAVQKSVPRLLINRDLVGPFVLSPRRKDVVQLGDVVHGVERLVDLLGWTQELLDLMQRERGKLDGQDR | – | – | – | – | – | – | – | – | – | we observed a 50% increase in enzymatic activity of LCAD in WT but not SIRT3 KO mice during CR
